The series in a line: label from the status in PepcDB records.
“MTVPEEAQTLIGKHYRAPDHFLVGREKIREFAVAVKDDHPTHYSEPDAAAAGYPALVAPLTFLAIAGRRVQLEIFTKFNIPINIARVFHRDQKFRFHRPILANDKLYFDTYLDSVIESHGTVLAEIRSEVTDAEGKPVVTSVVTMLGEAAHHEADADATVAA”: the protein production entry is “failed”.

Consider “MTVPHPESVGEPGIAVRAPARRRSAWHGQAPVVAVVALGGGIGGTARYAAALLWPTQSGGFPWTTFWVNVVGCAVIGVFMVVITDVWPAHRLVRPFFGTGVLGGFTTFSTYAVDIQKLVDAGHPRTALAYLAATLLAALAAVRLAATAARRVLVRRRR”, for which the protein production entry was “failed”. As for “MTVPLYKQIASLIEDSIVDGTLSIDQRVPSTNELAAFHRINPATARNGLTLLVEAGILYKKRGIGMFVSAQAPALIRERRDAAFAATYVAPLIDESIHLGFTRARIHALLDQVAESRGLYK”, the protein production entry is “failed”. To “MTVRTRVTDLLEIEHPILMGGMAWAGTPTLAAAVSEAGGLGIIGSGAMKPDDLRKAISELRQKTDKPFGVNIILVSPWADDLVKVCIEEKVPVVTFGAGNPTKYIRELKENGTKVIPVVASDSLARMVERAGADAVIAEGMESGGHIGEVTTFVLVNKVSRSVNIPVIAAGGIADGRGMAAAFALGAEAVQMGTRFVASVESDVHPVYKEKIVKASIRDTVVTGAKLGHPARVLRTPFARKIQEMEFENPMQAEEMLVGSLRRAVVEGDLERGSFMVGQSAGLIDEIKPVKQIIEDILKEFKETVEKLRGYIEE” belongs “not failed”. For the sequence “MTVSHHNASTARFYALRLLPGQEVFSQLHAFVQQNQLHAAWIAGCTGSLTDVALRYAGQEATTSLTGTFEVISLNGTLELTGEHLHLAVSDPYGAMLGGHMMPGCTVRTTLELVIGELPALTFSRQPCAISGYDELHISSRLEHHHHHH”, the protein production entry is recorded as “not failed”. Under “MTVVTFLAFLIPILVLAAIGGVVWWFWMKLRYKTARSNEALIIAGPKLGDPKKETNIFTDNEGRSIKIIRGGGHLLKMHQTATPVDLTSFQLKLTTPRVFTNGGVPIIADAVAMVTVSDTLKGIAIYAEQFLGKEQKEIESEISEVLNANLRAILSKMTVEQINEDREGFNLQVTEVAQKQLDSMGFKITSLGLQDLRDADKENGYLENLGRPRIAEVRKRAEIAESNSDKETRIHKANNDKEAKEQEFQRKIEIAAALKEKDLKDAAIKEETERARAKAEQSYLLEKAKLDKEVQEEELQLLARKKEEELRIKHLERERAVKLEEEEAKVRRAKADADFYETTRKAEADAEKARIEGETKARIKREEGLAEAEVIRKRGEAEAEAKRLLAEAIAKHGEVIIIEKLIEMLPQFAESISKPLSNIESVKIIDTGNGNGVSSYSKSITNTMAQIQEPLKELTGLDVSKLLTDLVNRGNTHTVVRTEAVPTDHHGSPVAASTESEEPVEDQPLENSDSEEKLEHHHHHH” stands “not failed”; under “MTWLIISGLVVGALLGFVMQRTRFCLAGGFRDMYIQKSNKMFYALLIAISVQSIGLLLLTSTRLVEIPESTYPIIGTVIGSFIFGLGIIMAGGCATGTWYRAGEGLIGSWMALIAYAFTSAATKFGLLLPLMNGLNKPTNVNTSMSQTTGIPTWVFVIVLIVITLFFVVKTLRKPKFAVPKLKQKFTGIRHYLFEKKYHPFVAAIAVGLIALLAWPVSESTGRMYGLGITTPSANLVQFFVTGDLKLLDWGVFLVLGIFFGSYIAAKGAKEFKWRLPDKKTIRNSIIGGVLMGFGASVAGGCSIGNGLVETATMSWKGWIALASMILGAWTMSYFVFIRPMKKAQSQTSNTKVSSQTQTS”, “failed”.

Consider “MTYCLGIVTQAGLIMAADSRTNAGIDYISTYQKLFDFSLPGDRTIVICCSGNLSITQAVLSQLRRDLAGHFDINLHSLPTMYDLARYLGQKVRQLQESDRDWLKQDGIDFYCNFLLGGQIRGGPIELYLVYGQGNCIHATPETPYLQIGETKYGKPILDRTISFDTSLDMAAKCALMSLDSTMRSNLSVGPPLNLARYERDSLVAPMLVQFPAGHEYLVEMRRRWEISLKDAFMRLPDIDWSRQLMRSLSPVSESVPLEHHHHHH”, for which the protein production entry is listed as “failed”.

With “MTYCLGVKLKDGLVAIADTRITSGTDTTTAKKLFVHESAHGSLFLMTSGLRSVRDKAITYFKEVLKDEHVVYNQLYEAVNAFGNQLRRVAEEDRKALYAAGFAFNLHTIVGGQLKNDEEPKMFLLYPEGNWIELTQTSPFMIIGNSGYGKPILNRTVKYESTLEEVLKAGFLSFDSTRVSANDVDFPLDVVVYYNNSFKMIEHRFEKKDMEIISTTWDNQLKQALDSVPEEWMNVVFDRKNVLLEHHHHHH”, the protein production result is given as “failed”.

As for “MTYKELATFLKVLSDSSRLEILDLLSCGELCACDLLAHFQFSQPTLSYHMKALVKTNLVTTRKIGNKHLYQLNHNIFESVINNLSKVHTSNQRCICHNLKTGEC”, the protein production entry is given as “failed”. To “MTYKVLHVGAGGFGERWCDTFLPSNNSDGTIEVVGLVDIDARALEIGRKHLGLKAKQCFTSAAQAFKAVDADFCTIVIPPALHEGIVDLALERGMHILSEKPIAATMEASVRIADKVRVAGRKMAVTMSHRFDQDKSTLRALVSDEALGRVNTVSCRFAGDYRAYDSWGRFRHEMIHPMLIEGAVHHLDIMADLAGAPCTSIYARSWKPEWAEYKGETDVMVLMDFANGAHGVYEGSSAQATGLNDWTFEYVRVEAASGTAILDHREVEVFHRDPKRIYQKNRHGKGQQVSLLGGKKWKNSLLIEQFCHWLDGGPPMATNVEDNLQSVALIFSAIESARLGQPVKVQEFLQSFRKSASIETQ” belongs “failed”; to “MTYMYDHDHIPKHITATIWEHLQRENPNFFKEYNKRCELVRQIVTLNDLLAQQIDLMQRLSQLDVGTTAPVTKLQEPNDHHHDEVQTLEQWLETNGFANIEDTFLCLSDLVDAPVTEVQKPKDKDQSCDQWINGSNDLASIEETVSSLINPSPFAETPQSEPPGLRYDTDCACITATSNLVTWVYDPSGDNKSGVEISSERRFGANISLERRRPREAGFTEQRPPSVLDGGRITGPLSSEPTMTH”, “failed”; to “MTYQQAGRIAVIKRILGWVIFIPSVLSTLISVLKFMYEHSEKKPGIDAVMMDFAHVMIEMMRFNTPFLNFFWYNSPLPDFHHSLNIGFWIIFILVFVGMALQASGARMARQAKFLREGIEDQLILEQAKGADGLTREQLAERIVVPRHTILVQYFPLYVLPVIVIVIGYFFFSLLGFL”, “failed”. To “MVAACKTMLTQIYEVATPAEAEAISVIGVDHVGVLVGDGAFPRELPVQKALAVMKMVRAPSVVSALFLSADVALIERMARELDPPIVHLGASSELLTPDLVVALRKSLPKTKFMRSVPVTGPEAVGVAQAYDGVVDWILLDSHRTGDVQIGAQGVTHDWSISRTIVESVRTPVILAGGLGPDNVKEAIRSVRPAGVDSKTRTDREGTHSKDLRKVEAFYRAATSG” belongs “failed”; to “MVACRVRLGRHQGARAGRTVCPKHRLRARDAGSRECAALSAGCGRMGRMSEQSLPDGVRPQNADALPEYAERVLDMTELIPPGRVMTYGDVAEYLEEGGPRQVGRVMSLYGGGVPWWRVVRADGVLLAGHELEALDRYREEGTPLKEASRAAEGHLPRLDLKRARWDGEGRPQGHGGRAQGHT”, “failed”. Under “MVAGRRKVVPGLVLLCLGALLARSLSVLIGINELLLAIALGAVLVNTVGIPERFRHGTATYNIWLAAGIVLLGSSLTVGMIIEVGATVLLLLVAAVTLTLVTVEVLARNVAGVTDRFGSLLAAGAGICGVSAVAAVGGAVRAKEMHIAYAAGVVLLVDAVTIVVYPIVGAVLDLPDVVFGVWAGVSMLSTGPVVAVGFAHSEVAGQWATITKLARNALIGVVALGYASYYARRGAGGSTSVRMLWENFPKFVLGFLVLVGLASLGAFSPAQQDMISTVVDWLFLLAFVGLGTQIRTAELRATGITPALIVFAAVLLVSVLSLAAALVVL” stands “failed”. Take “MVAIAQGLPHDLLAPAWQILILGDGSPTRHLQLLTGETTEVDVIDMSAIGHAGDRAPAQLQLIPGPRLRRQVWLRTASGQRLAYATSWWEAAHVDEYLQNRAMPIWTNLAQRKLELYRDIQAVYLGHSETLAAAFGEAGPFWGRHYLFWHDRRPITLIYEVFSPYLCRYLGPMGSTAYWANSALPFALEHHHHHH”: the protein production entry is “failed”. Under “MVAIDYVVIGAGYAGLMCAEALMDKGFKTLVFDMRESGGEIVVFSKLEEFRSKYEKYIEKIEEIRKDIPVDIGTVIKSKPVIINSGNGLKRYEARRVILATGATDTAPVKLNVLSKKIEGIYTLENALREISENNKIGEKVLIAAKDDVIVKLAESQLSDLGYDVEISELTNDIQVIGKERVEGVEISGVRYSCDTLVVYGGRNPFNPLKLRGTPVGNVVTCTYDYSKVEENVKNFLAKILEHHHHHH” stands “failed”.

For the sequence “MVAKDYPFYLTVKRANCSLEAPLGSGVAKDEEPSNKRVKPLSRVTSLANLIPPVKTTPLKRFSQTLQRSISFRSESRPDILAPRAWSRNATSSSTKRRDSKLWSETFDVCVNQVLTAKEIKRQEAIFELSQGEEDLIEDLKLAKKAYHDPMLKLSIMTEQELNQIFGTLDSLIPLHEELLSQLRDVRKPDGSTEHVGPILVGWLPCLSSYDSYCSNQVAAKALLDHKKQDHRVQDFLQRCLESPFSRKLDLWNFLDIPRSRLVKYPLLLREILRHTPNDNPDQQHLEEAINIIQGIVAEINTKTGESECRYYKERLLYLEEGQKDSLIDSSRVLCCHGELKNNRGVKLHVFLFQEVLVITRAVTHNEQLCYQLYRQPIPVKDLTLEDLQDGEVRLGGSLRGAFSNNERVKNFFRVSFKNGSQSQTHSLQANDTFNKQQWLNCIRQAKETVLSAAGQAGLLDSEGLVQGPGTENREPQGETKLEQMDQSDSESDCSMDTSEVSLECERMEQTDASCANSRPEESV”, the protein production entry is given as “not failed”. Under “MVAPLEIKNSNAFCFFPVSFASSRFPWLLKTLVMILGLATVVFMFRSLALTAEFGTFKPAFPKPGPVDPVLKLLSEEHLRTLFTYSDIWLFPKNQCDCESGKQQMKYKYQNAYNQKDLPAVNARRQAEFEHFQRREGLPRPPPLLASPNLPFGYPVHGVEVMPLHTILIPGLQYEGPDAPVYEVTLKASLGTLNTLADVSDNEVQGRGQRQLSISTRHRKVLNFILQHVTYTSTVYHLHKVDIVSMESKSSVAKFPVTIKHQTVPKLYDPGPERKLRNLVTIATKTFLRPHKFKILLQSIRKYYPDLTVIVTDDSKEPLEIKDDYVEYYPMPFGKGWFAGRNLAISQVTTKYVLWVDDDFLFSNKTKIEVLVDVLEKTELDVVGGSVQGNTFQFRLLLERSENGDCLHQRWGSFQALDGFPGCTLASGVTNFFLAHTEQLRRVGFDPALQRVAHREFFIDGLGSLLVGSCPGVTVDHQTRTPSKDPKLAALEMSYAKYRTNTNSQVQFKLALHYFKNHLYCAT” stands “failed”; under “MVDAASTGLFLDAAGMKALGAAIAIAVTGLASAIAEKDIGTAAIGAMAENEGLFGKGLILTVIPETIVIFGLVVALLINQ”, “failed”. To “MVDIHSHIIPGIDDGSNSLETTLKMMEIANEAGLTKMVATSHYFRGRFENSISAITSEAEKLNSIFKKKAVDIEVIPGQEVFIDNHTLEAHKNGIIGCIRDTNYMLVEFDMMSLLENAADILYEIQIRGIKPIIAHPERYTYIQRDLYKINDLIDENIYFQVNAGSIEGLFGKTVQKTAIKLIEEGLVSFIASDAHSAGKRCPGYEGALKLVAKIDSVLPGKFVKNADLLIENQEIKARSQKLKRKKGFFTFFK” belongs “failed”. For the sequence “MVDLVAKLKRGAPMLALLIVSTVLAGCSSSTAIKGSKDEGLRLARLLRDQGRVEAATEVYARLDSRDALKGAEMLEYASVAALARSPQQTLELYGRARQALGGDTNKMTPGEALAVCLGMGRTQLALGRNAMAQTDFACALKAQPNDAGALNGMGVVMDASGKHAEARQLFEKALQVNPADVAALNNLALSWLASGNTDKAISLLRSVDESNATSRLNLALAYLSGGRDDEARSALATIAQPQRIDGLMDELNQRLQQMQKDKSRGEALLLSSRQRLQLSAPE”, the protein production result is “failed”.

Values taken from a protein production outcome set (Wang et al. 2014).
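Also: failed if final PepcDB status was selected cloned or expressed and not failed if soluble or beyond.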
